# In paper PMC12360793:
# pKd: −log10 of the molar value.
# Experiments:
# [1] = target: dimeric P.dav ACE2 ectodomain (cryo-EM sample with MOW15–22 RBD) (P.dav (a Pteronotus bat)); assay: cryo-EM structure
# [2] = target: biotinylated monomeric MOW15–22 RBD (MOW15–22 (bat MERSr-CoV sampled in Pipistrellus nathusii)); assay: BLI
# [3] = target: biotinylated monomeric PnNL2018B RBD (PnNL2018B (bat MERSr-CoV sampled in Pipistrellus nathusii)); assay: BLI
substance,measurement,setting,value
MOW15–22 RBD (cryo-EM sample with P.dav ACE2) (from UniProt Q56H28 360-611) (domain or fragment),stoichiometry N (RBD per ACE2 dimer),[1],< 1
"dimeric P.dav ACE2 ectodomain (residues 17–728, avi-His8) (from UniProt Q56H28 17-728) (domain or fragment)",pKd,[2],8.20
"dimeric P.nat ACE2 ectodomain (residues 17–729, avi-His8) (domain or fragment)",pKd,[2],7.89
same,pKd,[3],6.05
"monomeric P.dav ACE2 ectodomain (residues 17–613, avi-His8) (from UniProt Q56H28 17-613) (domain or fragment)",pKd,[2],5.97
"monomeric P.nat ACE2 ectodomain (residues 17–614, avi-His8) (domain or fragment)",pKd,[2],5.84
